In patent publication US20240279318A1 (NANJING LEGEND BIOTECH, published 2024):

B1: AS170036 scFv-mIgG2aFc (Fc fusion, not shown: a dimerising Fc or GST)
chain: QLVLTQPSSVSGTPGQTVTISCAGTSSDVGSENYVSWYRQLPGTAPKLLIYQVNKRASGIADRFSGSKSGNTASMTISGLQSADEADYYCASYRSSDHNIVFGGGTHLTVLGGGGSGGGGSGGGGSAVQLVESGGGLVQPGGSLRLSCTASGFTFSSYAMSWVRQAPGKGLEWVSTINSGTGSPYYADSVKGRFTISRDNAKNTLYLQLNSLKTEDTAMYYCAKNFFDGSWFLGPPAMDYWGKGTLVTISS
notes: Camel scFv
B2: AS148691 scFv-mIgG2aFc (Fc fusion, not shown: a dimerising Fc or GST)
chain: DIQMTQSPSSLSASVGDRVTITCRASQSVSSAVAWYQQKPGKAPKLLIYSASSLYSGVPSRFSGSRSGTDFTLTISSLQPEDFATYYCQQYYGAYLITFGQGTKVEIKGGGGSGGGGSGGGGSEVQLVESGGGLVQPGGSLRLSCAASGFNLYYSSIHWVRQAPGKGLEWVASIYSSYGSTSYADSVKGRFTISADTSKNTAYLQMNSLRAEDTAVYYCARVGPGYYGIDYWGQGTLVTVSS
notes: i647-labelled for flow cytometry
B3: AS167830 sdAb-mIgG2aFc (Fc fusion, not shown: a dimerising Fc or GST)
chain: QVKLVESGGGSVQAGGSLRLSCAASRSSEYMNRRFCMGWFRQASGKEREGVAVVYIGGGRTYYADSVKGRFTISQDNAKNTLYLQMNNLKPEDTAMYYCTADVDPYESSWSRDLGYWGQGTQVTVSS
notes: as for B2
B4: ET1402L1 scFv fused to a C-terminal mouse IgG2a Fc region (Fc fusion, not shown: a dimerising Fc or GST)
chain: QSVLTQPASVSGSPGQSITISCTGTSSDVGGYNYVSWYQQHPGKAPKLMIYDVNNRPSEVSNRFSGSKSGNTASLTISGLQAEDEADYYCSSYTTGSRAVFGGGTKLTVLGGGGSGGGGSGGGGSEVQLVQSGAEVKKPGESLTISCKASGYSFPNYWITWVRQMSGGGLEWMGRIDPGDSYTTYNPSFQGHVTISIDKSTNTAYLHWNSLKASDTAMYYCARYYVSLVDIWGQGTLVTVSS
notes: also called positive control antibody
B5: AS170036 VL1VH1 scFv-mIgG2aFc (Fc fusion, not shown: a dimerising Fc or GST)
chain: QSALTQPRSVSGSPGQSVTISCAGTSSDVGSENYVSWYQQHPGKAPKLMIYQVNKRASGVPDRFSGSKSGNTASLTISGLQAEDEADYYCASYRSSDHNIVFGGGTKLTVLGGGGSGGGGSGGGGSEVQLVESGGGLVQPGGSLRLSCAASGFTFSSYAMSWVRQAPGKGLEWVSTINSGTGSPYYADSVKGRFTISRDNSKNTLYLQMNSLRAEDTAVYYCAKNFFDGSWFLGPPAMDYWGQGTLVTVSS
notes: Humanized
B6: AS179723 scFv-mIgG2aFc (Fc fusion, not shown: a dimerising Fc or GST)
chain: QAGLTQPPSMSGSPRQSVTISCTGSSNNIGGNYVNWYQHLPGTAPKLLIYDNKNRPSGVPEQISGSKSGSSASLTITGLQAEDEGDYYCASWDDSLSAVVFGGGTHLTVLGGGGSGGGGSGGGGSEVQLVESGGGLVQPGGSLRLSCAASGFTFLNYAMSWVRQAPGKGLEWVSSNSGAGSTYYSDSVKGRFTISRDYAKNVVYLQLNSLKTEDTGMYYCAKGTNVGSWSSLHYWGQGTQVTVSS
notes: Camel scFv; i647-labelled for flow cytometry
B7: AS179732 scFv-mIgG2aFc (Fc fusion, not shown: a dimerising Fc or GST)
chain: NFMLTQPPSMSGSPRQSVTISCTGSSSNIGGNYVNWYQHLPGTAPKLLIYDNSNRASGVPERFSGSKSGSSASLTITGLQAEDEGDYYCASWDDSLSGAVFGGGTHLTVLGGGGSGGGGSGGGGSEVQLVESGGGLVQPGGSLRLSCAASGFTFLNYAMSWVRQAPGKGLEWVSSNSGAGSTYYSDSVKGRFTISRDYAKNVVYLQLNSLKTEDTGMYYCAKGTNVGSWSSLHYWGQGTQVTVSS
notes: as for B6

Tests used:
[1] = biological target: T1, RP1 peptide loaded T2 cells (human, UniProt P61769 21-119); assay: flow cytometry, peptide-loaded T2 cells
T1 construct: whole, on cells; also called RP1/T2

[2] = biological target: T2, OR1I1 peptide loaded T2 cells (human, UniProt P61769 21-119); assay: flow cytometry, peptide-loaded T2 cells
T2 construct: whole, on cells; also called OR1I1/T2

[3] = biological target: T3, CDC14A peptide loaded T2 cells (human, UniProt P61769 21-119); assay: flow cytometry, peptide-loaded T2 cells
T3 construct: whole, on cells; also called CDC14A/T2

[4] = biological target: T4, ATG9A peptide loaded T2 cells (human, UniProt P61769 21-119); assay: flow cytometry, peptide-loaded T2 cells
T4 construct: whole, on cells; also called ATG9A/T2

[5] = biological target: T5, BRCA2 peptide loaded T2 cells (human); assay: flow cytometry, peptide-loaded T2 cells
T5 construct: whole, on cells; also called BRCA2/T2

[6] = biological target: T6, NR2E1 peptide loaded T2 cells (human, UniProt P61769 21-119); assay: flow cytometry, peptide-loaded T2 cells
T6 construct: whole, on cells; also called NR2E1/T2

[7] = biological target: T7, OR51B6 peptide loaded T2 cells (human, UniProt P61769 21-119); assay: flow cytometry, peptide-loaded T2 cells
T7 construct: whole, on cells; also called OR51B6/T2

[8] = biological target: T8, ARNTL peptide loaded T2 cells (human, UniProt P61769 21-119); assay: flow cytometry, peptide-loaded T2 cells
T8 construct: whole, on cells; also called ARNTL/T2

[9] = biological target: T9, PTP4A1 peptide loaded T2 cells (human, UniProt P61769 21-119); assay: flow cytometry, peptide-loaded T2 cells
T9 construct: whole, on cells; also called PTP4A1-pulsed T2 cells

[10] = biological target: T10, OR6C1 peptide loaded T2 cells (human, UniProt P61769 21-119); assay: flow cytometry, peptide-loaded T2 cells
T10 construct: whole, on cells; also called OR6C1/T2

[11] = biological target: T11, ZNF566 peptide loaded T2 cells (human, UniProt P61769 21-119); assay: flow cytometry, peptide-loaded T2 cells
T11 construct: whole, on cells; also called ZNF566/T2

[12] = biological target: T12, RCL1 peptide loaded T2 cells (human); assay: flow cytometry, peptide-loaded T2 cells
T12 construct: whole, on cells; also called RCL1/T2

[13] = biological target: T13, AFP158/HLA-A*02:01 complex (human); assay: SPR, antibody captured via mIgG2a-Fc, complex as analyte
T13 construct: biotinylated on the BSP by BirA for ELISA and panning; also called biotinylated AFP158/HLA-A*02:01 complex; Bio-AFP158
Protocol: (§1) The binding affinity between selected antibodies and AFP158/HLA-A*02:01 complex was determined by surface plasmon resonance (SPR) on a BIAcore T200 instrument (GE Healthcare). The experiment was carried out as follows. The purified sdAb/scFv-mIgG2aFc protein were captured through mIgG2a-Fc onto the sensorchip. […] On-rate (kₐ) and off-rate (kd) were calculated based on association and dissociation curve, and were used to estimate the equilibrium dissociation constant (KD).

[14] = biological target: T13, AFP158/HLA-A*02:01 complex; assay: SPR, scFv-mIgG2aFc from supernatant captured, complex as analyte
Protocol: as §1
(§2) Humanized heavy chains and light chains were combined, and used to produce a series of humanized antibodies. These antibodies were synthesized as scFv-mIgG2aFc and transiently produced using HEK293 cells. The antibodies in the supernatant were subjected to SPR affinity assessment.

[15] = biological target: T9, PTP4A1 peptide loaded T2 cells; assay: flow cytometry, 30 or 50 nM i647-labelled antibody
Protocol: At the concentration of 30 or 50 nM, binding of 7 antibodies to T2 cells loaded with AFP158, 50 endogenous self-peptides and 12 homologous peptides were carried out using flow cytometry.

[16] = biological target: T13, AFP158/HLA-A*02:01 complex; assay: SPR, scFv-mIgG2aFc from supernatant captured, complex as analyte; remark: listed apart in the source
Protocol: as §1, §2

[17] = biological target: T13, AFP158/HLA-A*02:01 complex; assay: as above; remark: listed apart in the source
Protocol: as §1, §2

| Binder | binding result [1] | binding result [2] | binding result [3] | binding result [4] | binding result [5] | binding result [6] | binding result [7] | binding result [8] | binding result [9] | binding result [10] | binding result [11] | binding result [12] | Kd [13] [nM] | koff [13] [s⁻¹] | kon [13] [M⁻¹ s⁻¹] | further results |
| --- | --- | --- | --- | --- | --- | --- | --- | --- | --- | --- | --- | --- | --- | --- | --- | --- |
| B1 | no binding (tested: 30 or 50 nM) | no binding (tested: 30 or 50 nM) | no binding (tested: 30 or 50 nM) | no binding (tested: 30 or 50 nM) | no binding (tested: 30 or 50 nM) | no binding (tested: 30 or 50 nM) | no binding (tested: 30 or 50 nM) | no binding (tested: 30 or 50 nM) | no binding (tested: 30 or 50 nM) | no binding (tested: 30 or 50 nM) | no binding (tested: 30 or 50 nM) | no binding (tested: 30 or 50 nM) | 250 | 0.06 | 240000 | Kd [14]: 450 nM; koff [14]: 0.19 s⁻¹; kon [14]: 430000 M⁻¹ s⁻¹ |
| B2 | no binding (tested: 30 or 50 nM) | no binding (tested: 30 or 50 nM) | no binding (tested: 30 or 50 nM) | no binding (tested: 30 or 50 nM) | no binding (tested: 30 or 50 nM) | no binding (tested: 30 or 50 nM) | no binding (tested: 30 or 50 nM) | no binding (tested: 30 or 50 nM) | no binding (tested: 30 or 50 nM) | no binding (tested: 30 or 50 nM) | no binding (tested: 30 or 50 nM) | no binding (tested: 30 or 50 nM) | 71 | 0.005 | 71000 | – |
| B3 | no binding (tested: 30 or 50 nM) | no binding (tested: 30 or 50 nM) | no binding (tested: 30 or 50 nM) | no binding (tested: 30 or 50 nM) | no binding (tested: 30 or 50 nM) | no binding (tested: 30 or 50 nM) | no binding (tested: 30 or 50 nM) | no binding (tested: 30 or 50 nM) | no binding (tested: 30 or 50 nM) | no binding (tested: 30 or 50 nM) | no binding (tested: 30 or 50 nM) | no binding (tested: 30 or 50 nM) | 260 | 0.07 | 270000 | – |
| B4 | – | – | – | – | – | – | – | – | – | – | – | – | – | – | – | binding result [15]: binds |
| B5 | no binding (tested: 30 or 50 nM) | no binding (tested: 30 or 50 nM) | no binding (tested: 30 or 50 nM) | no binding (tested: 30 or 50 nM) | no binding (tested: 30 or 50 nM) | no binding (tested: 30 or 50 nM) | no binding (tested: 30 or 50 nM) | no binding (tested: 30 or 50 nM) | no binding (tested: 30 or 50 nM) | no binding (tested: 30 or 50 nM) | no binding (tested: 30 or 50 nM) | no binding (tested: 30 or 50 nM) | – | – | – | Kd [14]: 360 nM; koff [14]: 0.062 s⁻¹; kon [14]: 170000 M⁻¹ s⁻¹ |
| B6 | no binding (tested: 30 or 50 nM) | no binding (tested: 30 or 50 nM) | no binding (tested: 30 or 50 nM) | no binding (tested: 30 or 50 nM) | no binding (tested: 30 or 50 nM) | no binding (tested: 30 or 50 nM) | no binding (tested: 30 or 50 nM) | no binding (tested: 30 or 50 nM) | no binding (tested: 30 or 50 nM) | no binding (tested: 30 or 50 nM) | no binding (tested: 30 or 50 nM) | no binding (tested: 30 or 50 nM) | 39 | 0.0042 | 110000 | Kd [16]: 28 nM; koff [16]: 0.0041 s⁻¹; kon [16]: 150000 M⁻¹ s⁻¹ |
| B7 | no binding (tested: 30 or 50 nM) | no binding (tested: 30 or 50 nM) | no binding (tested: 30 or 50 nM) | no binding (tested: 30 or 50 nM) | no binding (tested: 30 or 50 nM) | no binding (tested: 30 or 50 nM) | no binding (tested: 30 or 50 nM) | no binding (tested: 30 or 50 nM) | no binding (tested: 30 or 50 nM) | no binding (tested: 30 or 50 nM) | no binding (tested: 30 or 50 nM) | no binding (tested: 30 or 50 nM) | 67 | 0.0086 | 130000 | Kd [17]: 47 nM; koff [17]: 0.0075 s⁻¹; kon [17]: 160000 M⁻¹ s⁻¹ |
